Results published in US20120141463A1 (AstraZeneca / MedImmune, published 2012).
No end group written: not given here. Ahx = NCCCCCC(=O)O

T1: peptide from phosphoinositide binding protein (human)
T1 construct: also called peptide (vi); PIBP peptide
T1 peptide: TQLLCVEAFEGEEPW-{Ahx-K(biotin)}

T2: ε-migis peptide (human)
T2 construct: also called peptide (i); human ε-migis
T2 peptide: ELDVCVEEAEGEAPW-{Ahx-K(biotin)}

T3: cεmx.migis peptide (human, C-terminal -(Ahx)(K-Biot): aminohexanoic acid linker followed by a biotinylated lysine)
T3 construct: also called peptide (ii); cεmx.migs peptide
T3 peptide: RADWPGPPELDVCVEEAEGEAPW

B1: D5 antibody (antibody, V domains shown)
VH: EVQLLESGGGLVQPGGSLRLSCAASGFTFSKYHMVWVRQAPGKGLEWVSSIGPSGGNTYYADSVKGRFTISRDNSKNTLYLQMNSLRAEDTATYYCARALGATFDYWGQGTLVTVSS
VL: DIQMTQSPLSLPVTLGQPASISCKSSQSLVYRDGITYLSWFQQRPGQSPRRLIYKVSNRDSGVPDRFSGSGSDSNFTLKISSVEAEDVGLYFCMQGSHWPFTFGPGTKVDIKR
notes: Fully human clone from the Dyax FAB-310 Fab phage library, converted to full length IgG (detected with an anti-human IgG1 Fc antibody); also called D5 IgG; clone D5
B2: B1 antibody (antibody, V domains shown)
VH: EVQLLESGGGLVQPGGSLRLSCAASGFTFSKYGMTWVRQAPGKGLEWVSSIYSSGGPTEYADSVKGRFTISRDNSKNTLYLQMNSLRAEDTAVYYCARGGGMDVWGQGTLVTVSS
VL: DIQMTQSPVSLPVTLGQPASISCRSSHSLVYSHGGTYLNWFQQRPGRSPRRLIYQVSNRDSGVPDRFSGSGSDTDFTLQISRVEADDIGIYYCMQSTYWPYAFGQGTKLDIKR
notes: Human Fab phage clone converted to full IgG; also called CP1-B1
B3: A1c antibody (antibody, V domains shown)
VH: EVQLLESGGGLVQPGGSLRLSCAASGFTFSFYSMLWVRQAPGKGLEWVSYIGPSGGKTYYADSVKGRFTISRDNSKNTLYLQMNSLRAEDTAMYYCARRYCSGGSCYFDYWGQGTLVTVSS
VL: DIQMTQSPSTLSASIGDRVTITCRASQSINSWLAWYQQKPGKGPDLLIYKASSLQSGVPSRFSGSGSGTEFTLTISSLQPDDFATYYCQQYSSWPLTFGGGTKVEIKR
notes: Human Fab phage clone converted to full IgG; also called anti ε-migis antibody A1c
B4: F4 antibody (antibody, V domains shown)
VH: EVQLLESGGGLVQPGGSLRLSCAASGFTFSNYGMFWVRQAPGKGLEWVSSIWPSGGNTMYADSVKGRFTISRDNSKNTLYLQMNSLRAEDTAVYYCARASYYGMDVWGQGTTVTVSS
VL: DIQMTQSPSSLSASIGDRVTITCRGSQNIGRYLNWYQHKPGKAPDLLVYAASSLRSGVPSRFSGSGSGRDFTLTISSLQPGDFATYYCQQSYSAPFTFGAGTKVDVKR
notes: Human Fab phage clone converted to full length IgG; also called clone F4

Key:
[1] = target: T1, peptide from phosphoinositide binding …; experiment: peptide ELISA (Migis, cemx.migis, PIBP peptide); antibody concentration not shown
ε-migis peptide = target: T2, ε-migis peptide; experiment: as above
mIgM on RPMI 1788 cells = target: T4, mIgM on RPMI 1788 cells (human, UniProt P01871 1-474); experiment: FACS, primary antibody plus secondary (Gt α Mu or G α Hu); % cells staining and MF
T4 construct: whole, on cells; Endogenous immunoglobulin of the cell line; light chain not described; also called IgM (RPMI 1788 cells); membrane IgM
T4 sequence (P01871 whole entry): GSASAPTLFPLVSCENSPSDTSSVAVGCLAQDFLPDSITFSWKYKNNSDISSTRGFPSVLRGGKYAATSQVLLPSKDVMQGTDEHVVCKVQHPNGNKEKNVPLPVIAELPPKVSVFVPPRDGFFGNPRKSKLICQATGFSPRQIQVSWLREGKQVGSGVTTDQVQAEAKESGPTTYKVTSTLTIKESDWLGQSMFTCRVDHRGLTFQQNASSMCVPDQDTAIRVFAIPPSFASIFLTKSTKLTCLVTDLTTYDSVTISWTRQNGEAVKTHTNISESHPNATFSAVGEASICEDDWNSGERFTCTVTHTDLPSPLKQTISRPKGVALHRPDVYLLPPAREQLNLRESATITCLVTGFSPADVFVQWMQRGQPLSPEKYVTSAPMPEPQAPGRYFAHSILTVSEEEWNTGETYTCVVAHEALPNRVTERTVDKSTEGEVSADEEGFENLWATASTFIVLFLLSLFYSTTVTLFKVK

cεmx.migis peptide [2] = target: T3, cεmx.migis peptide; experiment: inhibition phage ELISA: cεmx.migis peptide on Neutravidin plate, phage with control IgG, A1c or B1, anti-M13-HRP
cεmx.migis peptide [3] = target: T3, cεmx.migis peptide; experiment: inhibition phage ELISA: cεmx.migis peptide on Neutravidin plate, phage with irrelevant IgG control or A1c IgG, anti-M13-HRP

Binder	binding result [1]	binding result (ε-migis peptide)	binding result (mIgM on RPMI 1788 cells)	binding result (cεmx.migis peptide [2])	binding result (cεmx.migis peptide [3])
B1	no binding	no binding	no binding	binds	
B2	no binding	no binding		binds	
B3	binds	binds			binds
B4				binds	
